Measurements as given in PMC7308502, “Genome Segregation by the Venus Flytrap Mechanism: Probing the Interaction Between the ParF ATPase and the ParG Centromere Binding Protein” (Frontiers in Molecular Biosciences, 2020).
pKd: −log10 of the molar value.

Legend:
ParF [1] = target: T1, ParF (Salmonella enterica, UniProt Q9KJ83); assay: sedimentation assay of higher-order assembly; type: binding; conditions: 2 mM nucleotide, 5 mM MgCl2, 30 mM Tris-HCl pH 8.0, 100 mM KCl, 30 °C
T1 construct: full-length, His-tagged (pET-22b(+)), produced in E. coli BL21(DE3); monomer with ADP, dimer and higher-order with ATP
T1 sequence (Q9KJ83 1-206): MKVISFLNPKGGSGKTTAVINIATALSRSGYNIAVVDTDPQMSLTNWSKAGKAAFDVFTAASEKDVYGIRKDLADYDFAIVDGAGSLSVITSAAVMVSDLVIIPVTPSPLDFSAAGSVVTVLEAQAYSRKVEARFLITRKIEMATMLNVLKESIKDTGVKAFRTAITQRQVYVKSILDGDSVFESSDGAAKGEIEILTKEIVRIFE
Description: sedimentation assay of higher-order assembly on ParF | ATP or non-hydrolyzable ATPγS increased the levels of higher-order assemblies of wild-type ParF

ParF [2] = target: T1, ParF; assay: fluorescence anisotropy titration; type: binding; conditions: read-out: apparent Kd; 20 mM HEPES, 150 mM NaCl, 1 mM MgCl2, pH 7.0; 0.9 μM labelled compound; possible hydrolysis during measurement
[3] = target: wild-type ParF, His-tagged, purified (plasmid TP228 (in Escherichia coli))
[4] = target: wild-type ParF, His-tagged, purified (plasmid TP228 (in Escherichia coli)); assay: co-sedimentation
[5] = target: wild-type ParF fused to the T18 or T25 fragment of Bordetella pertussis adenylate cyclase (plasmid TP228 (in Escherichia coli)); assay: two-hybrid

Nc1ncnc2c1ncn2[C@@H]1O[C@H](COP(=O)(O)OP(=O)(O)OP(=O)(O)O)[C@@H](O)[C@H]1O [ATP]
fold increase in pellet fraction (ParF [1]): ~ 2 fold

Nc1ncnc2c1ncn2[C@@H]1O[C@H](COP(=O)(O)OP(=O)(O)OP(O)(O)=S)[C@@H](O)[C@H]1O [ATPγS]
fold increase in pellet fraction (ParF [1]): ~ 2 fold

CNc1ccccc1C(=O)O[C@H]1[C@@H](O)[C@H](n2cnc3c(N)ncnc32)O[C@@H]1CO[P@@](=O)(O)O[P@](=O)(O)OP(=O)(O)O [MANT-ATP]
pKd (ParF [2]): ~6.30

ParG, His-tagged, purified (natural protein)
fold stimulation of ParF ATPase activity by ParG (ParF 1 μM, ParG 0-20 μM, 5 μM ATP) [3]: 20 fold
percent of ParG in the pellet fraction (with ATPγS) [4]: 50%

wild-type ParF fused to the T18 or T25 fragment of Bordetella pertussis adenylate cyclase (natural protein)
β-galactosidase units (β-galactosidase units) [5]: 700

wild-type ParF, His-tagged, purified (enzyme)
percent of ParF in the pellet fraction (with ParG and ATPγS) [4]: 80%
